Here are results for 125 sequences from the supplement of paper PMC9112550, “Optimization of the antimicrobial peptide Bac7 by deep mutational scanning” (BMC Biology, 2022).

This data set relates to Escherichia coli TOP10. The data set can be described thus: shrunken log2 fold change of peptide-encoding DNA abundance (4.5 h post-induction vs induction); higher = less antimicrobial activity (less host growth inhibition). Particulars: time post-induction: 4.5 h; library: site-saturation at positions 5, 18, 19, 20.
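Further: peptides expressed intracellularly from a pBAD plasmid library in pooled LB shake-flask culture, induced with 0.3% L-arabinose, DNA abundance read by NGS, three biological replicates, DESeq2 with apeglm shrinkage.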

RRIRWRPPRLPRPRPRPMLWPRP: the “shrunken log2 fold change” value is 0.0929.
RRIRDRPPRLPRPRPRPKAAPRP: the “shrunken log2 fold change” value came out at 0.0214.
The figure for RRIRYRPPRLPRPRPRPNFEPRP is -0.242; for RRIRMRPPRLPRPRPRPMFCPRP it is -0.0875; for RRIRNRPPRLPRPRPRPSRCPRP it is 0.283.
In the case of RRIRQRPPRLPRPRPRPPECPRP, the “shrunken log2 fold change” value was -0.0742.
Next, RRIRVRPPRLPRPRPRPSHNPRP: -0.692; RRIRPRPPRLPRPRPRPESEPRP: -0.0127.
The figure for RRIRPRPPRLPRPRPRPTTRPRP is 1.65; for RRIRIRPPRLPRPRPRPYDKPRP it is -0.224; for RRIRLRPPRLPRPRPRPGLAPRP it is 0.164.
Take RRIRHRPPRLPRPRPRPWHQPRP: the “shrunken log2 fold change” value is -0.0658.
Next, RRIRNRPPRLPRPRPRPMPVPRP: -0.139; RRIRWRPPRLPRPRPRPEHLPRP: -0.138; RRIRWRPPRLPRPRPRPFCWPRP: 0.403.
Next, RRIRHRPPRLPRPRPRPHNQPRP: -0.521; RRIRVRPPRLPRPRPRPIYLPRP: -0.543; RRIRGRPPRLPRPRPRPWNYPRP: -0.0902.
Regarding RRIRWRPPRLPRPRPRPLVNPRP, the “shrunken log2 fold change” value was -0.0798.
The figure for RRIRLRPPRLPRPRPRPWGIPRP is -0.198; for RRIRPRPPRLPRPRPRPDISPRP it is 0.0683; for RRIRHRPPRLPRPRPRPLVCPRP it is -9.35e-05.
For the sequence RRIRIRPPRLPRPRPRPGMWPRP, the “shrunken log2 fold change” value is 0.0422.
In the case of RRIRDRPPRLPRPRPRPKNPPRP, the “shrunken log2 fold change” value was -0.128.
For the sequence RRIRLRPPRLPRPRPRPLMMPRP, the “shrunken log2 fold change” value is -0.164.
The figure for RRIRERPPRLPRPRPRPWWAPRP is -0.0718; for RRIRHRPPRLPRPRPRPNGTPRP it is -0.297.
The figure for RRIRPRPPRLPRPRPRPPQIPRP is 0.138.
The figure for RRIRDRPPRLPRPRPRPHGNPRP is -0.149.
Turning to RRIRTRPPRLPRPRPRPCILPRP, the “shrunken log2 fold change” value was -0.831.
The figure for RRIRQRPPRLPRPRPRPPMTPRP is -0.268.
Next, RRIRDRPPRLPRPRPRPQRLPRP: 0.116; RRIRMRPPRLPRPRPRPKMEPRP: 1.45.
The figure for RRIRVRPPRLPRPRPRPSTWPRP is -0.184; for RRIRLRPPRLPRPRPRPCEYPRP it is 0.0103.
As for RRIRVRPPRLPRPRPRPHIHPRP, the “shrunken log2 fold change” value was -0.545.
With RRIRKRPPRLPRPRPRPIHGPRP, the “shrunken log2 fold change” value is -0.122.
The figure for RRIRIRPPRLPRPRPRPGDTPRP is -0.372; for RRIRIRPPRLPRPRPRPYEVPRP it is -0.248.
In the case of RRIRPRPPRLPRPRPRPYLWPRP, the “shrunken log2 fold change” value was -0.769.
Next, RRIRNRPPRLPRPRPRPNIHPRP: -0.457.
RRIRSRPPRLPRPRPRPYCRPRP: the “shrunken log2 fold change” value is -0.512.
For the sequence RRIRFRPPRLPRPRPRPFMSPRP, the “shrunken log2 fold change” value is -0.0532.
Next, RRIRVRPPRLPRPRPRPTIPPRP: -0.0501; RRIRFRPPRLPRPRPRPLQVPRP: -0.135.
Turning to RRIRQRPPRLPRPRPRPVSCPRP, the “shrunken log2 fold change” value amounted to 0.0853.
RRIRDRPPRLPRPRPRPQRCPRP: the “shrunken log2 fold change” value was determined as 0.121.
Consider RRIRFRPPRLPRPRPRPRLWPRP, for which the “shrunken log2 fold change” value is 0.497.
The figure for RRIRYRPPRLPRPRPRPGQYPRP is -0.414.
With RRIRGRPPRLPRPRPRPYKMPRP, the “shrunken log2 fold change” value was -0.234.
On to RRIRQRPPRLPRPRPRPLTLPRP, for which the “shrunken log2 fold change” value was -0.104.
Consider RRIRIRPPRLPRPRPRPVRMPRP, for which the “shrunken log2 fold change” value stood at 0.109.
Next, RRIRCRPPRLPRPRPRPDIIPRP: -0.132; RRIRVRPPRLPRPRPRPVTIPRP: -0.232; RRIRFRPPRLPRPRPRPGYGPRP: 0.019.
Regarding RRIRLRPPRLPRPRPRPCSVPRP, the “shrunken log2 fold change” value was -0.0962.
The figure for RRIRIRPPRLPRPRPRPPDIPRP is -0.198; for RRIRARPPRLPRPRPRPKRWPRP it is 0.586; for RRIRYRPPRLPRPRPRPALQPRP it is -0.1.
In the case of RRIRWRPPRLPRPRPRPADTPRP, the “shrunken log2 fold change” value is 0.0101.
The figure for RRIRHRPPRLPRPRPRPDACPRP is -0.0498.
RRIRWRPPRLPRPRPRPTSFPRP: the “shrunken log2 fold change” value is -0.0166.
RRIRSRPPRLPRPRPRPAQYPRP: the “shrunken log2 fold change” value was 0.0401.
For RRIRNRPPRLPRPRPRPMKRPRP, the “shrunken log2 fold change” value stood at 0.0981.
Next, RRIRTRPPRLPRPRPRPQFPPRP: -0.0282; RRIRHRPPRLPRPRPRPMMRPRP: 0.0201; RRIRVRPPRLPRPRPRPCFAPRP: 0.116.
In the case of RRIRIRPPRLPRPRPRPTCFPRP, the “shrunken log2 fold change” value is -0.249.
Next, RRIRMRPPRLPRPRPRPFRMPRP: 0.00199; RRIRLRPPRLPRPRPRPECPPRP: 0.0712.
On to RRIRTRPPRLPRPRPRPGDDPRP, for which the “shrunken log2 fold change” value is 0.24.
For the sequence RRIRWRPPRLPRPRPRPAPQPRP, the “shrunken log2 fold change” value worked out at 0.743.
The figure for RRIRKRPPRLPRPRPRPDGTPRP is 0.293.
In the case of RRIRLRPPRLPRPRPRPWLPPRP, the “shrunken log2 fold change” value was -0.464.
RRIRDRPPRLPRPRPRPRVEPRP: the “shrunken log2 fold change” value was 0.137.
For the sequence RRIRIRPPRLPRPRPRPIGIPRP, the “shrunken log2 fold change” value is -0.0608.
Next, RRIRTRPPRLPRPRPRPKFDPRP: -0.0528; RRIRRRPPRLPRPRPRPPAEPRP: 0.851; RRIRGRPPRLPRPRPRPHLFPRP: 0.0842.
On to RRIRERPPRLPRPRPRPTWHPRP, for which the “shrunken log2 fold change” value was determined as 0.358.
The figure for RRIRLRPPRLPRPRPRPLAWPRP is 0.32.
The figure for RRIRYRPPRLPRPRPRPRDGPRP is -0.0431.
The figure for RRIRVRPPRLPRPRPRPALQPRP is 0.0743.
As to RRIRSRPPRLPRPRPRPPNGPRP, the “shrunken log2 fold change” value was 0.36.
The figure for RRIRSRPPRLPRPRPRPGAQPRP is 0.68; for RRIRTRPPRLPRPRPRPQFSPRP it is -0.823; for RRIRHRPPRLPRPRPRPFNVPRP it is 1.22.
On to RRIRARPPRLPRPRPRPLCCPRP, for which the “shrunken log2 fold change” value is 0.305.
As to RRIRDRPPRLPRPRPRPAYDPRP, the “shrunken log2 fold change” value is 0.0094.
Consider RRIRHRPPRLPRPRPRPILNPRP, for which the “shrunken log2 fold change” value is -0.186.
On to RRIRWRPPRLPRPRPRPIAEPRP, for which the “shrunken log2 fold change” value turned out to be 0.00894.
With RRIRRRPPRLPRPRPRPHLKPRP, the “shrunken log2 fold change” value is -0.0915.
For the sequence RRIRTRPPRLPRPRPRPSDIPRP, the “shrunken log2 fold change” value was -0.0989.
The figure for RRIRHRPPRLPRPRPRPHQNPRP is -0.494; for RRIRCRPPRLPRPRPRPCVKPRP it is -0.439; for RRIRIRPPRLPRPRPRPLSDPRP it is 0.0446.
Take RRIRSRPPRLPRPRPRPGFTPRP: the “shrunken log2 fold change” value was -0.125.
Next, RRIRLRPPRLPRPRPRPGWLPRP: 0.0878; RRIRERPPRLPRPRPRPEAQPRP: 0.227; RRIRYRPPRLPRPRPRPFYWPRP: -1.7.
Next, RRIRKRPPRLPRPRPRPPAVPRP: 0.847.
For RRIRSRPPRLPRPRPRPSCPPRP, the “shrunken log2 fold change” value was -0.494.
For RRIRRRPPRLPRPRPRPTAKPRP, the “shrunken log2 fold change” value came out at 0.371.
On to RRIRQRPPRLPRPRPRPFLKPRP, for which the “shrunken log2 fold change” value is -0.939.
Next, RRIRKRPPRLPRPRPRPANCPRP: 0.0966; RRIRNRPPRLPRPRPRPWFPPRP: -0.223.
Next, RRIRQRPPRLPRPRPRPTMVPRP: -0.148.
Regarding RRIRYRPPRLPRPRPRPYCFPRP, the “shrunken log2 fold change” value was -1.
As to RRIRRRPPRLPRPRPRPGYKPRP, the “shrunken log2 fold change” value was -0.0679.
Turning to RRIRNRPPRLPRPRPRPFFKPRP, the “shrunken log2 fold change” value was 0.0559.
The figure for RRIRMRPPRLPRPRPRPGLNPRP is 0.223.
Next, RRIRFRPPRLPRPRPRPRQPPRP: 0.68; RRIRTRPPRLPRPRPRPGRAPRP: 0.446; RRIRQRPPRLPRPRPRPRHAPRP: -0.0685.
With RRIRRRPPRLPRPRPRPHFDPRP, the “shrunken log2 fold change” value was 0.216.
For the sequence RRIRDRPPRLPRPRPRPVFNPRP, the “shrunken log2 fold change” value is -0.353.
The figure for RRIRWRPPRLPRPRPRPVCDPRP is 0.534; for RRIRVRPPRLPRPRPRPDVCPRP it is 0.0951; for RRIRTRPPRLPRPRPRPPHGPRP it is -0.228.
With RRIRPRPPRLPRPRPRPELMPRP, the “shrunken log2 fold change” value was -0.109.
In the case of RRIRMRPPRLPRPRPRPYKKPRP, the “shrunken log2 fold change” value was -0.161.
Next, RRIRQRPPRLPRPRPRPISEPRP: 0.0446; RRIRARPPRLPRPRPRPEQKPRP: 1.29; RRIRTRPPRLPRPRPRPYFPPRP: -0.995.
Next, RRIRQRPPRLPRPRPRPLRCPRP: 0.244.
